According to patent US20140303084A1 (Biogen, published 2014):
Ends that are not written are not given here.

target: human Factor IXa (human, UniProt P00740 47-191; P00740 227-461); test: cell-based or functional assay

Row | EC50 [µM], FXa generation assay [µM] | Binder
1 | > 1 | RRAPGKLCALASYCWLFWTGIA-NH2 (cysteine pairing not given here) [RRAPGKLCALASYCWLFWTGIA-CONH2]
2 | < 0.5 | RRAPGKLTCLASYCWLFWTTWTTAPTTPPLTT [RRAPGKLTCLASYCWLF WTTWT TAPTTPPLTT]
3 | > 1 | RRAPGKCTALASYAWCFWTGIA-NH2 (cysteine pairing not given here) [RRAPGKCTALASYAWCFWTGIA-CONH2]
4 | > 10 | RRAPGKLTCLASYAWLCWTGIA-NH2 (cysteine pairing not given here) [RRAPGKLTCLASYAWLCWTGIA-CONH2]
5 | > 20 | RRAPGKLTCLASYAWCFWTGIA-NH2 (cysteine pairing not given here) [RRAPGKLTCLASYAWCFWTGIA-CONH2]
6 | > 1 | RRAPGKCTALASYCWLFWTGIA-OH (cysteine pairing not given here) [RRAPGKCTALASYCWLFWTGIA-COOH]
7 | > 10 | SKQGRPISPDRRAAGKLTCLASYCWLFGSGISLSRAPESAAP
8 | > 1 | RRAPGKCTALASYCWLFWTGIA-NH2 (cysteine pairing not given here) [RRAPGKCTALASYCWLFWTGIA-CONH2]
9 | > 1 | RRAPGKCTALASYAWCFWTGIA-OH (cysteine pairing not given here) [RRAPGKCTALASYAWCFWTGIA-COOH]
10 | < 0.5 | RRAPGKLTCLASYCWLFWTGLLDYPTPQSHEP [RRAPGKLTCLASYCWLF WTGLL DYPTPQSHEP]
11 | > 10 | RRAPGKLCALASYACLFWTGIA-NH2 (cysteine pairing not given here) [RRAPGKLCALASYACLFWTGIA-CONH2]
12 | > 10 | RRAPGKLTCLASYAWLCWTGIA-OH (cysteine pairing not given here) [RRAPGKLTCLASYAWLCWTGIA-COOH]
13 | > 1 | RRAPGKLTCLASYAWCFWTGIA-OH (cysteine pairing not given here) [RRAPGKLTCLASYAWCFWTGIA-COOH]
14 | > 1 | RRAPGCLTALASYCWLFWTGIA-NH2 (cysteine pairing not given here) [RRAPGCLTALASYCWLFWTGIA-CONH2]
15 | > 20 | RRAPGCLTALASYAWLCWTGIA-OH (cysteine pairing not given here) [RRAPGCLTALASYAWLCWTGIA-COOH]
16 | > 1 | RRAPGKLTCLASYACLFWTGIA-NH2 (cysteine pairing not given here) [RRAPGKLTCLASYACLFWTGIA-CONH2]
17 | > 1 | RRAPGKLCALASYCWLFWTGIA-OH (cysteine pairing not given here) [RRAPGKLCALASYCWLFWTGIA-COOH]
18 | > 10 | RRAPGKLCALASYACLFWTGIA-OH (cysteine pairing not given here) [RRAPGKLCALASYACLFWTGIA-COOH]
19 | > 1 | RRAPGCLTALASYCWLFWTGIA-OH (cysteine pairing not given here) [RRAPGCLTALASYCWLFWTGIA-COOH]
20 | > 1 | RRAPGCLTALASYAWLCWTGIA-NH2 (cysteine pairing not given here) [RRAPGCLTALASYAWLCWTGIA-CONH2]
